Laboratory results as given in article PMC12292525, “Identification, Cloning, and Functional Characterization of Carotenoid Cleavage Dioxygenase (CCD) from Olea europaea and Ipomoea nil” (Biology, 2025).

System: CC1=C(/C=C/C(C)=C/C=C/C(C)=C/C=C/C=C(C)/C=C/C=C(\C)C=O)C(C)(C)CCC1
Assay: beta-ionone formation, Michaelis-Menten nonlinear fit
Assay type: biochemical, Olea europaea
Details: optimal reaction conditions (pH 9.5 Gly-NaOH, 45 °C reported as optimum), O2 co-substrate
Description: beta-ionone formation, Michaelis-Menten nonlinear fit on OeCCD1

OeCCD1 (Olea europaea var. sylvestris)
Km: 820 µM
Vmax: 2.3 µmol/min/mg
kcat: 3.35 s⁻¹
kcat/Km: 4090 M⁻¹ s⁻¹
